Laboratory results reported in article PMC3473065.
Residue numbers refer to the chain shown, from its start.

B1: wild-type Ncd dimeric motor protein (MGSM-H293-K700) (domain or fragment)
chain: MGSMHAALSTEVVHLRQRTEELLRCNEQQAAELETCKEQLFQSNMERKELHNTVMDLRGNIRVFCRIRPPLESEENRMCCTWTYHDESTVELQSIDAQAKSKMGQQIFSFDQVFHPLSSQSDIFEMVSPLIQSALDGYNICIFAYGQTGSGKTYTMDGVPESVGVIPRTVDLLFDSIRGYRNLGWEYEIKATFLEIYNEVLYDLLSNEQKDMEIRMAKNNKNDIYVSNITEETVLDPNHLRHLMHTAKMNRATASTAGNERSSRSHAVTKLELIGRHAEKQEISVGSINLVDLAGSESPKTSTRMTETKNINRSLSELTNVILALLQKQDHIPYRNSKLTHLLMPSLGGNSKTLMFINVSPFQDCFQESVKSLRFAASVNSCKMTKAKRNRYLNNSVANSSTQSNNSGSFDK
B2: NcdY485E dimeric motor protein (MGSM-H293-K700) (domain or fragment)
chain: B1 chain with Y197E
B3: NcdY485N dimeric motor protein (MGSM-H293-K700) (domain or fragment)
chain: B1 chain with Y197N
B4: NcdY485K dimeric motor protein (MGSM-H293-K700) (domain or fragment)
chain: B1 chain with Y197K

Experiments:
[1] = target: microtubules
[2] = target: microtubules; test: co-sedimentation; microtubule pelleting assay: 0.7 µM motor with 2 µM microtubules and 0.1 mM Mg·ADP in HEM100 (10 mM HEPES pH 7.2, 1 mM EGTA, 1 mM MgCl2, 100 mM NaCl); centrifugation, SDS-PAGE; corrected for motor that pelleted without microtubules

Row | Binder | K (M,MT) of steady-state ATPase, 0.5 µM motor + 0-25 µM microtubules [1] [µM] | MT binding with ADP (fraction bound) (fraction bound) [2]
1 | B1 | 17 | 0.2
2 | B2 |  | 0.29
3 | B3 |  | 0.37
4 | B4 | 1.6 | 0.6
